Experimental findings from patent US20240018189A1 (PROTAGONIST THERAPEUTICS, published 2024) are described below.

The chains are these.
T1: human ferroportin (SLC40A1) fused in frame with GFP (human, UniProt Q9NP59 1-571)
T1 sequence (looked up): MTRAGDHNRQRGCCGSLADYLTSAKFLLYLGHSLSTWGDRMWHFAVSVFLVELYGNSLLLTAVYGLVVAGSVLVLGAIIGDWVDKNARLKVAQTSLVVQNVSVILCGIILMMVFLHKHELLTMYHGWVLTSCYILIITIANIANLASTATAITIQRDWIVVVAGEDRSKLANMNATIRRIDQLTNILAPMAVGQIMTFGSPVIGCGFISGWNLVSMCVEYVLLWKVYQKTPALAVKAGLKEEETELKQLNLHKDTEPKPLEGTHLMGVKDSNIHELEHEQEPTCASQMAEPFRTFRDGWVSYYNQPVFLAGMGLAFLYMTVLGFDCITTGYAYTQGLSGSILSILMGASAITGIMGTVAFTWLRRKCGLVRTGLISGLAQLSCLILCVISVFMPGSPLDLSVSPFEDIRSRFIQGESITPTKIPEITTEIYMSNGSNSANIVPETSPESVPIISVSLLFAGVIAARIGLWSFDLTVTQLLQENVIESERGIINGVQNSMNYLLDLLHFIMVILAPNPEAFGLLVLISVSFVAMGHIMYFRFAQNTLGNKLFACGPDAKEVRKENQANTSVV

T2: human ferroportin (SLC40A1) fused in frame with GFP (human) (UniProt Q9NP59)
T2 sequence (looked up): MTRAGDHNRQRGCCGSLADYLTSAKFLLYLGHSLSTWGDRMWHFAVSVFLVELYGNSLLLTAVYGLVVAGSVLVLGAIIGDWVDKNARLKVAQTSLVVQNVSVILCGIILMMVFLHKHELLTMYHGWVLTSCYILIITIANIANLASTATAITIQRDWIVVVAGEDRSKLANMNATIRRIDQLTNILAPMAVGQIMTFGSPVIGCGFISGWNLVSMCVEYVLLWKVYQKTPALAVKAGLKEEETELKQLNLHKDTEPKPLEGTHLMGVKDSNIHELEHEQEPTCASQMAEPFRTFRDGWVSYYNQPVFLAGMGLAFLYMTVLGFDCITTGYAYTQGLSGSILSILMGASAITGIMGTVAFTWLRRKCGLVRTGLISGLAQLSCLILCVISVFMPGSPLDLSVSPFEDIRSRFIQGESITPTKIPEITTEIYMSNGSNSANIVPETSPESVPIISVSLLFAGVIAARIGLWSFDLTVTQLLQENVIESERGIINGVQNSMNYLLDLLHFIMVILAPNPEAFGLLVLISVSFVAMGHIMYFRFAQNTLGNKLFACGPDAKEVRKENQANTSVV

B1: Seq. No. 344 (peptide)
peptide: DTHXPCIKFKKX
modifications: N-term isovaleric acid; 4 Dpa; 8 (D)Lys; 10 Lys(PEG12_Palm); 11 (D)Lys; 12 Pen; C-term NH2
B2: Seq. No. 338 (peptide)
peptide: DTHXPCIKFKXC
modifications: N-term isovaleric acid; 4 Dpa; 8 (D)Lys; 10 Lys(PEG12 Palm); 11 bhLys; C-term NH2
B3: Seq. No. 345 (peptide)
peptide: DTHXPCIKXKKC
modifications: N-term isovaleric acid; 4 Dpa; 8 (D)Lys; 9 Dpa; 10 Lys(PEG12_Palm); 11 (D)Lys; C-term NH2
B4: Compd. ID 9 (peptide)
peptide: DTHXPCIKXKC
modifications: N-term isovaleric acid; 4 Dpa; 8 Lys[1Peg2-1Peg2-isoGlu-Behenic_Acid]; 9 bhPhe; 10 (D)Lys; C-term NH2

Positions of bridges follow the written chain, without caps; N, C: chain ends. Non-standard residues stand in square brackets, D forms with d. Groups on a side chain read outwards from the residue. *: point of attachment. PEG12 = NCCOCCOCCOCCOCCOCCOCCOCCOCCOCCOCCOCCOCCC(=O)O; Phe(3,4-F2) = N[C@@H](Cc1ccc(F)c(F)c1)C(=O)O; Dip = N[C@H](C(=O)O)C(c1ccccc1)c1ccccc1; Palmitoyl = CCCCCCCCCCCCCCCC(=O)*; β3hF = N[C@H](CC(=O)O)Cc1ccccc1; Isovaleryl = CC(C)CC(=O)*; Dap = NC[C@H](N)C(=O)O; Npc = nipecotic acid

One test deals with T1, human ferroportin (SLC40A1) fused in …. Kind of test: cell-based or functional assay.
Regarding Isovaleryl-DTH[Dip]PCI[Dap]([Dap-Palmitoyl])[β3hF]C-NH2 (disulfide 6-10 (inferred)) [Compd. ID 1], the “FPN EC50” value turned out to be 2.54 nM.

In a further test the target is T2, human ferroportin (SLC40A1) fused in frame with GFP (human). The test is described as follows: cell-based or functional assay.
Take DTHXPCIKFKC (N-term isovaleric acid; 4 Dpa; 8 (D)Lys; 10 Lys(PEG12_Palm); C-term NH2) [Seq. No. 341]: the IC50: FPN internalisation turned out to be 22 nM. In the case of DTHXPCIKFKXC (N-term isovaleric acid; 4 Dpa; 8 (D)Lys; 10 Lys(PEG12 Palm); 11 Dab; C-term NH2) [Seq. No. 339], the IC50: FPN internalisation was 22.8 nM. Same read-out and setting: to B1 belongs 7.75 nM; to Isovaleryl-DTH[Dip][Npc]CI[dK][Phe(3,4-F2)]K([PEG12-Palmitoyl])KC-NH2 (disulfide 6-12 (inferred)) [Seq. No. 346], 6.16 nM.

In turn, B2 displayed an IC50: FPN internalisation of 20.4 nM. The same measure, in the same setting: the result for DTHXPCIKFKXC (N-term isovaleric acid; 4 Dpa; 8 (D)Lys; 10 Lys(PEG12_Palm); 11 Orn; C-term NH2) [Seq. No. 340] reads 26.9 nM. B3 yielded an IC50: FPN internalisation of 23 nM. On to B4, for which the FPN EC50 worked out at 18.4 nM.
